From publication PMC12416549 (2024)
Numbering of substitutions follows the chain as printed. Numbers in names are those of the source.

T1: TNFR1 (Homo sapiens, UniProt P19438)
T1 chain: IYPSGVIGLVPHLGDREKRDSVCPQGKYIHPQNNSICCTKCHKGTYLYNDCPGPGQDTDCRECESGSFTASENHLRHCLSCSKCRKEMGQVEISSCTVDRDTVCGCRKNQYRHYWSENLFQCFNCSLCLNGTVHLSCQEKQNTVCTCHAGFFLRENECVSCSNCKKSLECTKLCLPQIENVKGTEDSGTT

B1: L52V (designed binder)
chain: MTLQELLREEALRRAEAEAFRYALELLAEKFPEQKEYLLDLAEEIESQIRSVSGVDVEDVRKFLDKEWAWVKELLAEHPAELAEVEAARAARLAELRAEVEAKVAA
B2: L93E (designed binder)
chain: B1 chain with V52L, L93E
B3: M1Q (designed binder)
chain: B1 chain with M1Q, V52L
B4: E84D (designed binder)
chain: B1 chain with V52L, E84D
B5: A102D (designed binder)
chain: B1 chain with V52L, A102D
B6: D40C (designed binder)
chain: B1 chain with D40C, V52L
B7: V100W (designed binder)
chain: B1 chain with V52L, V100W
B8: R13A (designed binder)
chain: B1 chain with R13A, V52L
B9: L64Q (designed binder)
chain: B1 chain with V52L, L64Q
B10: E95I (designed binder)
chain: B1 chain with V52L, E95I
B11: F20P (designed binder)
chain: B1 chain with F20P, V52L
B12: E10Q (designed binder)
chain: B1 chain with E10Q, V52L
B13: L96Y (designed binder)
chain: B1 chain with V52L, L96Y
B14: Q4T (designed binder)
chain: B1 chain with Q4T, V52L
B15: E5I (designed binder)
chain: B1 chain with E5I, V52L
B16: A11Y (designed binder)
chain: B1 chain with A11Y, V52L
B17: E101L (designed binder)
chain: B1 chain with V52L, E101L
B18: Q4E (designed binder)
chain: B1 chain with Q4E, V52L
B19: A15S (designed binder)
chain: B1 chain with A15S, V52L
B20: E25P (designed binder)
chain: B1 chain with E25P, V52L
B21: E18W (designed binder)
chain: B1 chain with E18W, V52L
B22: A94S (designed binder)
chain: B1 chain with V52L, A94S
B23: L26P (designed binder)
chain: B1 chain with L26P, V52L
B24: L38D (designed binder)
chain: B1 chain with L38D, V52L
B25: R8N (designed binder)
chain: B1 chain with R8N, V52L
B26: A91S (designed binder)
chain: B1 chain with V52L, A91S
B27: L27P (designed binder)
chain: B1 chain with L27P, V52L
B28: Q34Y (designed binder)
chain: B1 chain with Q34Y, V52L
B29: L39G (designed binder)
chain: B1 chain with L39G, V52L
B30: E9N (designed binder)
chain: B1 chain with E9N, V52L
B31: A90E (designed binder)
chain: B1 chain with V52L, A90E
B32: K30H (designed binder)
chain: B1 chain with K30H, V52L
B33: L74F (designed binder)
chain: B1 chain with V52L, L74F
B34: V85I (designed binder)
chain: B1 chain with V52L, V85I
B35: W68N (designed binder)
chain: B1 chain with V52L, W68N
B36: E67S (designed binder)
chain: B1 chain with V52L, E67S
B37: T2V (designed binder)
chain: B1 chain with T2V, V52L
B38: L82C (designed binder)
chain: B1 chain with V52L, L82C
B39: L3K (designed binder)
chain: B1 chain with L3K, V52L
B40: M1M (designed binder)
chain: B1 chain with V52L
B41: Q4Y (designed binder)
chain: B1 chain with Q4Y, V52L
B42: A87W (designed binder)
chain: B1 chain with V52L, A87W
B43: Q4D (designed binder)
chain: B1 chain with Q4D, V52L
B44: I49L (designed binder)
chain: B1 chain with I49L, V52L
B45: L93C (designed binder)
chain: B1 chain with V52L, L93C
B46: A42E (designed binder)
chain: B1 chain with A42E, V52L
B47: E46G (designed binder)
chain: B1 chain with E46G, V52L
B48: L82H (designed binder)
chain: B1 chain with V52L, L82H
B49: P32I (designed binder)
chain: B1 chain with P32I, V52L
B50: A23I (designed binder)
chain: B1 chain with A23I, V52L
B51: R97P (designed binder)
chain: B1 chain with V52L, R97P
B52: L27I (designed binder)
chain: B1 chain with L27I, V52L
B53: E18V (designed binder)
chain: B1 chain with E18V, V52L
B54: W68Y (designed binder)
chain: B1 chain with V52L, W68Y
B55: Y22R (designed binder)
chain: B1 chain with Y22R, V52L
B56: L7V (designed binder)
chain: B1 chain with L7V, V52L
B57: E81R (designed binder)
chain: B1 chain with V52L, E81R
B58: E101Q (designed binder)
chain: B1 chain with V52L, E101Q
B59: E44Y (designed binder)
chain: B1 chain with E44Y, V52L

Target: T1, TNFR1
Experiment: yeast display SC50

| apparent Kd (screen) [nM] | Binder |
| --- | --- |
| 0.49 | B1 |
| 0.869 | B2 |
| 0.593 | B3 |
| 0.49 | B4 |
| 0.539 | B5 |
| 0.79 | B6 |
| 0.539 | B7 |
| 0.368 | B8 |
| 0.79 | B9 |
| 0.446 | B10 |
| 7.07 | B11 |
| 13.8 | B12 |
| 0.49 | B13 |
| 0.593 | B14 |
| 0.49 | B15 |
| 0.49 | B16 |
| 0.593 | B17 |
| 0.79 | B18 |
| 0.539 | B19 |
| 2.25 | B20 |

| apparent Kd (screen) [nM] | Binder |
| --- | --- |
| 0.446 | B21 |
| 0.593 | B22 |
| 13.8 | B23 |
| 11.4 | B24 |
| 0.539 | B25 |
| 0.79 | B26 |
| 7.78 | B27 |
| 0.539 | B28 |
| 3 | B29 |
| 0.593 | B30 |
| 0.49 | B31 |
| 0.49 | B32 |
| 0.79 | B33 |
| 0.593 | B34 |
| 12.5 | B35 |
| 6.43 | B36 |
| 0.593 | B37 |
| 0.593 | B38 |
| 2.48 | B39 |
| 0.49 | B40 |

| apparent Kd (screen) [nM] | Binder |
| --- | --- |
| 0.49 | B41 |
| 0.653 | B42 |
| 0.539 | B43 |
| 0.539 | B44 |
| 0.653 | B45 |
| 0.956 | B46 |
| 0.49 | B47 |
| 0.593 | B48 |
| 0.49 | B49 |
| 0.653 | B50 |
| 0.869 | B51 |
| 1.27 | B52 |
| 0.79 | B53 |
| 0.49 | B54 |
| 0.593 | B55 |
| 2.25 | B56 |
| 0.539 | B57 |
| 0.718 | B58 |
| 7.78 | B59 |
